# Measured values as given in article PMC6610666 (2019).
# Target: mouse CBP TAZ1 (residues 340-439) (mouse, UniProt P45481 340-439)
# Test: ITC
# Chain of mouse CBP TAZ1 (residues 340-439) (P45481 340-439): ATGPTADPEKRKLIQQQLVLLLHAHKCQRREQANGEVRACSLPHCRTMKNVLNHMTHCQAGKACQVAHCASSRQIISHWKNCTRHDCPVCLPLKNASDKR
binder,measurement,value
HDYIYNLDESEGVCDLFD (domain or fragment) [human E2F4 transactivation domain (residues 390-407)],Kd,700 nM
